Patent US20090048168A1 (CASE WESTERN RESERVE UNIVERSITY, published 2009)
One block for each molecule: values may come before it.

How the values were obtained:
YFP-IP3R type 1 = assay: acceptor photobleaching FRET, fixed COS-7 cells expressing YFP-IP3R and CFP-Bcl-2
[1] = target: Bcl-2 exogenously expressed in WEHI7.2 cells (UniProt P10415 1-239); assay: cell-based or functional assay
Bcl-2 exogenously expressed in WEHI7.2 cells, sequence (P10415 whole entry): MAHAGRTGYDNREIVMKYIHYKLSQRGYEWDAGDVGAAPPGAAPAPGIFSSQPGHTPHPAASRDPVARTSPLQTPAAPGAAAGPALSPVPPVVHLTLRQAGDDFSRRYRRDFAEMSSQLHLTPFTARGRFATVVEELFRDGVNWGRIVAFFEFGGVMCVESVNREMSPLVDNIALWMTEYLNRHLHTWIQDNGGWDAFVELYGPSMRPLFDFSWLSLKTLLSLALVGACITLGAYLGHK

increase of CFP signal following YFP bleaching (FRET) (YFP-IP3R type 1): 28%
Molecule: CFP-Bcl-2 (from UniProt P10415 1-239)

anti-CD3-induced apoptosis in Bcl-2(+) WEHI7.2 cells, fold enhancement [1]: 2 fold
B1: peptide 2, aa 1389-1408 of IP3R (peptide)
peptide: NVYTEIKCNSLLPLDDIVRV
